Source: patent US20250145720A1

Legend:
[1] = biological target: mouse FcRn, biotinylated extracellular domain (FcRnECDHis-B2M-BIO) (mouse) (UniProt Q61559); test: ELISA on coated mouse FcRn at pH 6.0, apparent affinity
[2] = biological target: human complement component C1q (human) (UniProt P02745); test: C1q ELISA, antibody coated in dilution series, 3% pooled human serum
[3] = biological target: human complement component C1q (human) (UniProt P02745); test: cell-based or functional assay
[4] = biological target: human complement component C1q (human) (UniProt P02745); test: FACS, C1q on antibody-opsonized Daudi cells, Exp. 10
[5] = biological target: human complement component C1q (human) (UniProt P02745); test: FACS, C1q on antibody-opsonized Raji cells, Exp. 1
[6] = biological target: human complement component C1q (human) (UniProt P02745); test: FACS, C1q on antibody-opsonized Daudi cells, Exp. 1
[7] = biological target: human complement component C1q (human) (UniProt P02745); test: FACS, C1q on antibody-opsonized Daudi cells, Exp. 11
[8] = biological target: human complement component C1q (human) (UniProt P02745); test: FACS, C1q on antibody-opsonized Raji cells, Exp. 3
[9] = biological target: human complement component C1q (human) (UniProt P02745); test: FACS, C1q on antibody-opsonized Daudi cells, average
[10] = biological target: human complement component C1q (human) (UniProt P02745); test: FACS, C1q on antibody-opsonized Daudi cells, Exp. 7
[11] = biological target: human complement component C1q (human) (UniProt P02745); test: FACS, C1q on antibody-opsonized Daudi cells, ranking table
[12] = biological target: human complement component C1q (human) (UniProt P02745); test: FACS, C1q on antibody-opsonized Daudi cells, Exp. 8
[13] = biological target: human complement component C1q (human) (UniProt P02745); test: FACS, C1q on antibody-opsonized Daudi cells, Exp. 6
[14] = biological target: human complement component C1q (human) (UniProt P02745); test: FACS, C1q on antibody-opsonized Raji cells, Exp. 2
[15] = biological target: human complement component C1q (human) (UniProt P02745); test: FACS, C1q on antibody-opsonized Raji cells, average
[16] = biological target: human complement component C1q (human) (UniProt P02745); test: FACS, C1q on antibody-opsonized Daudi cells, Exp. 2
[17] = biological target: human complement component C1q (human) (UniProt P02745); test: FACS, C1q on antibody-opsonized Daudi cells, Exp. 3
[18] = biological target: human complement component C1q (human) (UniProt P02745); test: FACS, C1q on antibody-opsonized Daudi cells, Exp. 4
[19] = biological target: human complement component C1q (human) (UniProt P02745); test: FACS, C1q on antibody-opsonized Daudi cells, ranking table; no reliable fit
[20] = biological target: human complement component C1q (human) (UniProt P02745); test: FACS, C1q on antibody-opsonized Daudi cells, Exp. 9

mouse FcRn, biotinylated extracellular domain (FcRnECDHis-B2M-BIO) (mouse), sequence (Q61559 22-297): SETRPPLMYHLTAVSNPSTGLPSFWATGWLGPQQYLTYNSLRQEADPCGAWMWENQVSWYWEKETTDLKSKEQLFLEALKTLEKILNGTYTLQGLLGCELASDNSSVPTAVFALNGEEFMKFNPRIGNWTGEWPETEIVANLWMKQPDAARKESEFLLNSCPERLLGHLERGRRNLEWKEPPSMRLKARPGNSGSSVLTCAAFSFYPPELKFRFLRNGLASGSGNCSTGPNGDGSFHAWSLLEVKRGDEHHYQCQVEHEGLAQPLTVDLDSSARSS
human complement component C1q (human), sequence (P02745 23-245 limits assumed, chain 1 of 3): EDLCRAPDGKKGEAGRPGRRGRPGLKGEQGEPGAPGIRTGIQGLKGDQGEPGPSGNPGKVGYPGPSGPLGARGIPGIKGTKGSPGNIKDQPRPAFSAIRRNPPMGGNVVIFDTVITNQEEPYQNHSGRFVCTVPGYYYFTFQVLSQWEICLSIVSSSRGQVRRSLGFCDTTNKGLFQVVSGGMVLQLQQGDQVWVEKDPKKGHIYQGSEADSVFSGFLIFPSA
human complement component C1q (human), sequence (P02746 28-253 limits assumed, chain 2 of 3, further chain): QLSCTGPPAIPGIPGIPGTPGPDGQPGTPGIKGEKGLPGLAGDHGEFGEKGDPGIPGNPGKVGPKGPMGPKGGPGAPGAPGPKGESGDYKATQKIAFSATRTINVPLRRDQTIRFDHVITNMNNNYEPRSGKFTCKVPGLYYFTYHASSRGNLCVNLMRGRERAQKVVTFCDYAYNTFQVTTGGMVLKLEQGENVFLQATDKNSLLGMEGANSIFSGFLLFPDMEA
human complement component C1q (human), sequence (P02747 29-245 limits assumed, chain 3 of 3, further chain): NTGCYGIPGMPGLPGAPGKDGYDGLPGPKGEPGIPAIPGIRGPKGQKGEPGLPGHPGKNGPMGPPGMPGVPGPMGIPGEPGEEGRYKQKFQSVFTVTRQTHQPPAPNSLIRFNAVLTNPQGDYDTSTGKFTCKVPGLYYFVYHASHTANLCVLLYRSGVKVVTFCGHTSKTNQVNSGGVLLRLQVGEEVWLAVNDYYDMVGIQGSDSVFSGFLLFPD

Substance | EC50 [1] | CH50 (C1q concentration giving 50% lysis), CDC on Raji cells in C1q-depleted serum [3] | EC50 of CDC on Daudi cells, 20% normal human serum [3] | EC50 of CDC on Raji cells, 20% normal human serum [3] | Kd [9] | Kd [11] | further results
IgG1-005-E345Q (antibody) | 0.12 µg/mL | – | – | – | – | – | –
IgG1-005-E345R (antibody) | 0.09 µg/mL | – | – | – | – | – | –
IgG1-005-E430F (antibody) | 0.11 µg/mL | – | – | – | – | – | –
IgG1-005-E430T (antibody) | 0.15 µg/mL | – | – | – | – | – | –
IgG1-005-P247G (antibody) | 0.28 µg/mL | – | – | – | – | – | –
IgG1-005-S440K (antibody) | 0.11 µg/mL | – | – | – | – | – | –
IgG1-005-S440Y (antibody) | 0.15 µg/mL | – | – | – | – | – | –
IgG1-7D8-E345R (antibody) | – | 0.03 µg/mL | 0.04 µg/mL | 0.16 µg/mL | 1.7 nM | 1.7 nM | Kd [10]: 0.17 nM; Kd [4]: 2.7 nM
IgG1-7D8-G385D (antibody) | – | 22.5 µg/mL | 2.12 µg/mL | 17.4 µg/mL | 74 nM | 74 nM | Kd [13]: 77 nM; Kd [7]: 71 nM
IgG1-7D8-H433A (antibody) | – | > 30 µg/mL | 3.44 µg/mL | 22.6 µg/mL | 118 nM | 118 nM | EC50 [2]: 3.33 µg/mL; Kd [14]: 85 nM; Kd [15]: 97.9 nM; Kd [16]: 76.1 nM; Kd [5]: 125 nM; Kd [6]: 168 nM; Kd [17]: 45.2 nM; Kd [18]: 181 nM; Kd [8]: 84 nM
IgG1-7D8-I253A (antibody) | – | 11.2 µg/mL | 0.79 µg/mL | 5.55 µg/mL | 21.5 nM | 21.5 nM | EC50 [2]: 2.56 µg/mL; Kd [14]: 25.7 nM; Kd [15]: 18.6 nM; Kd [16]: 20.4 nM; Kd [6]: 33 nM; Kd [17]: 16.7 nM; Kd [18]: 15.7 nM; Kd [8]: 20.1 nM
IgG1-7D8-I253D/H433A (antibody) | – | > 30 µg/mL | 4.77 µg/mL | > 30 µg/mL | 5290 nM | – | Kd [13]: 10300 nM; Kd [19]: 5290 nM; Kd [7]: 246 nM
IgG1-7D8-I253Y (antibody) | – | 16.1 µg/mL | 1.77 µg/mL | 28.9 µg/mL | 41.3 nM | 41.3 nM | EC50 [2]: 2.21 µg/mL; Kd [14]: 45.6 nM; Kd [15]: 38.7 nM; Kd [16]: 37 nM; Kd [5]: 24.3 nM; Kd [6]: 58.5 nM; Kd [17]: 21.1 nM; Kd [18]: 48.7 nM; Kd [8]: 46.2 nM
IgG1-7D8-K322A (antibody) | – | > 30 µg/mL | > 30 µg/mL | > 30 µg/mL | – | – | –
IgG1-7D8-K439E (antibody) | – | > 30 µg/mL | 2.34 µg/mL | 21.5 µg/mL | 361 nM | 361 nM | Kd [13]: 418 nM; Kd [7]: 304 nM
IgG1-7D8-K439E + IgG1-7D8-S440K mix | – | 1.33 µg/mL | 0.48 µg/mL | 1.58 µg/mL | – | – | Kd [13]: 3.6 nM
IgG1-7D8-K439E/S440K (antibody) | – | 0.09 µg/mL | 0.33 µg/mL | 1.34 µg/mL | 2.6 nM | 2.6 nM | Kd [10]: 1.63 nM; Kd [13]: 4.6 nM; Kd [12]: 1.01 nM; Kd [4]: 2.9 nM
IgG1-7D8-Q311A (antibody) | – | 0.63 µg/mL | 0.42 µg/mL | 1.72 µg/mL | 10.7 nM | 10.7 nM | Kd [14]: 10.1 nM; Kd [16]: 13 nM; Kd [5]: 4.1 nM; Kd [6]: 14.3 nM; Kd [8]: 12.2 nM
IgG1-7D8-Y436D (antibody) | – | > 30 µg/mL | 1.88 µg/mL | 16.6 µg/mL | 468 nM | 468 nM | Kd [13]: 431 nM; Kd [7]: 504 nM

Further lines, with some results ahead:

EC50 [1] | CH50 (C1q concentration giving 50% lysis), CDC on Raji cells in C1q-depleted serum [3] | EC50 of CDC on Daudi cells, 20% normal human serum [3] | EC50 of CDC on Raji cells, 20% normal human serum [3] | Kd [9] | Kd [11] | Substance | further results
0.14 µg/mL | – | – | – | – | – | IgG1-005 (HuMab 005, wild type) (antibody) | –
0.1 µg/mL | – | – | – | – | – | IgG1-005-E345K (antibody) | –
0.11 µg/mL | – | – | – | – | – | IgG1-005-E345N (antibody) | –
0.13 µg/mL | – | – | – | – | – | IgG1-005-E345Y (antibody) | –
0.13 µg/mL | – | – | – | – | – | IgG1-005-E430G (antibody) | –
0.11 µg/mL | – | – | – | – | – | IgG1-005-E430H (antibody) | –
0.14 µg/mL | – | – | – | – | – | IgG1-005-E430S (antibody) | –
0.31 µg/mL | – | – | – | – | – | IgG1-005-K439E (antibody) | –
– | 0.49 µg/mL | 0.48 µg/mL | 1.54 µg/mL | – | – | IgG1-7D8 (HuMab-7D8, wild type) (antibody) | EC50 [2]: 2.05 µg/mL; Kd [4]: 11.8 nM; Kd [5]: 4.8 nM; Kd [6]: 7.7 nM; Kd [7]: 13.3 nM; Kd [8]: 10.9 nM
– | 0.77 µg/mL | 0.76 µg/mL | 2.96 µg/mL | 2.3 nM | 2.3 nM | IgG1-7D8-E382R (antibody) | Kd [10]: 1.18 nM; Kd [12]: 1.13 nM
– | 0.96 µg/mL | 0.81 µg/mL | 2.22 µg/mL | – | – | IgG1-7D8-H435A (antibody) | EC50 [2]: 2.27 µg/mL; Kd [14]: 9.9 nM; Kd [15]: 7.3 nM; Kd [16]: 10.9 nM; Kd [5]: 5.4 nM; Kd [6]: 7.8 nM; Kd [17]: 5 nM; Kd [18]: 10.9 nM
– | 0.24 µg/mL | 0.28 µg/mL | 0.61 µg/mL | – | – | IgG1-7D8-H435R (antibody) | EC50 [2]: 1.24 µg/mL; Kd [16]: 8.7 nM; Kd [17]: 2.6 nM; Kd [18]: 3 nM
– | > 30 µg/mL | 3.33 µg/mL | > 30 µg/mL | 157 nM | 157 nM | IgG1-7D8-I253D (antibody) | EC50 [2]: 3.84 µg/mL; Kd [14]: 172 nM; Kd [16]: 176 nM; Kd [5]: 70 nM; Kd [6]: 146 nM; Kd [18]: 205 nM; Kd [8]: 85.2 nM
– | 21.2 µg/mL | 1.77 µg/mL | – | 42.6 nM | 42.6 nM | IgG1-7D8-N434A (antibody) | EC50 [2]: 2.12 µg/mL; Kd [14]: 46.7 nM; Kd [15]: 44.9 nM; Kd [16]: 47.8 nM; Kd [5]: 35.9 nM; Kd [6]: 36.7 nM; Kd [17]: 28.3 nM; Kd [18]: 48.7 nM; Kd [8]: 35.2 nM
– | > 30 µg/mL | 1.78 µg/mL | 19.5 µg/mL | 109 nM | 109 nM | IgG1-7D8-S440K (antibody) | Kd [13]: 170 nM; Kd [7]: 48 nM
– | – | – | – | 7.2 nM | – | Ofatumumab (antibody) | Kd [13]: 5.4 nM; Kd [12]: 2.7 nM; Kd [4]: 12.8 nM; Kd [20]: 12.5 nM
